Assay [1] concerns the target Tau-LexA (Tau variant 0N4R isoform with a C-terminal LexA fusion) (Homo sapiens, UniProt P10636-6). Kind of assay: two-hybrid.
Another assay concerns the target Biotinylated Tau 2N4R (Homo sapiens, UniProt P10636-8, biotin (NHS-biotin conjugates, 5 molar excess; sites not stated)). Put plainly: SPR. In general terms: Surface plasmon resonance follows binding to a sensor surface in real time, without labels.
In assay [2] the target is Tau 2N4R (recombinant; 15N-labelled for NMR) (Homo sapiens, UniProt P10636-8). Put plainly: NMR titration.
Assay [3] deals with Tau (on the Western blot membrane) (Homo sapiens, UniProt P10636). Put plainly: far-Western, overlay or dot blot.

In doi:10.1101/2023.07.18.549252 (bioRxiv, 2023) one finds binding result and Kd data, which are given here for 16 molecules.

B1: VHH Z70 mutant 3 (R47K), Gal4 activation domain fusion prey (VHH)
VHH: EVQLQASGGVFVQSGGSLRLSCAASGATSTFDGMGWFRQAPGKEKEFVSAISYEQGSYTYYADSVKGRFTISRDNSKNMVYLQMNSLRAEDTATYYCAPAYEGDLYAFDSYGGQGTQVTVSS
For the molecule B1, in assay [1], the binding result was “binds”.

B2: VHH Z70 mutant 15 (R90G + P101S + G114E) (VHH)
VHH: EVQLQASGGVFVQSGGSLRLSCAASGATSTFDGMGWFRQAPGKEREFVSAISYEQGSYTYYADSVKGRFTISRDNSKNMVYLQMNSLGAEDTATYYCASAYEGDLYAFDSYEGQGTQVTVSS
For B2, the binding result in the assay with Biotinylated Tau 2N4R is on record as “binds”.

B3: VHH Z70 mutant 3 (R47K) (VHH)
VHH: EVQLQASGGVFVQSGGSLRLSCAASGATSTFDGMGWFRQAPGKEKEFVSAISYEQGSYTYYADSVKGRFTISRDNSKNMVYLQMNSLRAEDTATYYCAPAYEGDLYAFDSYGGQGTQVTVSS
B3: the binding result (in the assay with Biotinylated Tau 2N4R; in assay [2]) was “binds” throughout.

B4: VHH Z70 mutant 9 (P101S + G115E) (VHH)
VHH: EVQLQASGGVFVQSGGSLRLSCAASGATSTFDGMGWFRQAPGKEREFVSAISYEQGSYTYYADSVKGRFTISRDNSKNMVYLQMNSLRAEDTATYYCASAYEGDLYAFDSYGEQGTQVTVSS
For the molecule B4, the binding result (with Biotinylated Tau 2N4R; in assay [2]) was “binds” each time.

B5: VHH Z70 mutant 20 (R47K + G115E) (VHH)
VHH: EVQLQASGGVFVQSGGSLRLSCAASGATSTFDGMGWFRQAPGKEKEFVSAISYEQGSYTYYADSVKGRFTISRDNSKNMVYLQMNSLRAEDTATYYCAPAYEGDLYAFDSYGEQGTQVTVSS
As for B5, the binding result (with Biotinylated Tau 2N4R; in assay [2]) was “binds” each time.

B6: VHH Z70 mutant 1 (G115E) (VHH)
VHH: EVQLQASGGVFVQSGGSLRLSCAASGATSTFDGMGWFRQAPGKEREFVSAISYEQGSYTYYADSVKGRFTISRDNSKNMVYLQMNSLRAEDTATYYCAPAYEGDLYAFDSYGEQGTQVTVSS
What is called Kd is the equilibrium constant for the complex coming apart. On to B6, for which, in the assay with Biotinylated Tau 2N4R, the Kd worked out at 23 nM.

B7: VHH Z70 mutant 12 (S23C + G115E) (VHH)
VHH: EVQLQASGGVFVQSGGSLRLCCAASGATSTFDGMGWFRQAPGKEREFVSAISYEQGSYTYYADSVKGRFTISRDNSKNMVYLQMNSLRAEDTATYYCAPAYEGDLYAFDSYGEQGTQVTVSS
As for B7, the binding result (with Biotinylated Tau 2N4R; in assay [2]) was “binds” each time.

B8: TAMRA-labelled VHH Z70 mutant 20 (double mutation R47K + G115E) with a terminal cysteine (VHH)
VHH: EVQLQASGGVFVQSGGSLRLSCAASGATSTFDGMGWFRQAPGKEKEFVSAISYEQGSYTYYADSVKGRFTISRDNSKNMVYLQMNSLRAEDTATYYCAPAYEGDLYAFDSYGEQGTQVTVSS
Consider B8, for which, in assay [3], the binding result is “binds”.

B9: VHH Z70 mutant 15 (R90G + P101S + G114E), Gal4 activation domain fusion prey (VHH)
VHH: EVQLQASGGVFVQSGGSLRLSCAASGATSTFDGMGWFRQAPGKEREFVSAISYEQGSYTYYADSVKGRFTISRDNSKNMVYLQMNSLGAEDTATYYCASAYEGDLYAFDSYEGQGTQVTVSS
For the molecule B9, in assay [1], the binding result is given as “binds”.

B10: VHH Z70 mutant 14, Gal4 activation domain fusion prey (VHH)
VHH: EVQLQASGGVFVQSGGSLRLSCAASGATSIFDGMGWFRQAPGKEREFVSAISYGQGSYTYYADSVKGRFTISRDNSKNMVYLQMNSLRAEDTATYYCAPAYEGDLYAFDSYGEQGTQVTVSS
For B10, in assay [1], the binding result is recorded as “binds”.

B11: TAMRA-labelled VHH Z70 mutant 3 (R47K) with a terminal cysteine (VHH)
VHH: EVQLQASGGVFVQSGGSLRLSCAASGATSTFDGMGWFRQAPGKEKEFVSAISYEQGSYTYYADSVKGRFTISRDNSKNMVYLQMNSLRAEDTATYYCAPAYEGDLYAFDSYGGQGTQVTVSS
As to B11, in assay [3], the binding result is listed as “binds”.

B12: VHH Z70 mutant 5 (T96S) (VHH)
VHH: EVQLQASGGVFVQSGGSLRLSCAASGATSTFDGMGWFRQAPGKEREFVSAISYEQGSYTYYADSVKGRFTISRDNSKNMVYLQMNSLRAEDTASYYCAPAYEGDLYAFDSYGGQGTQVTVSS
With B12, the binding result (with Biotinylated Tau 2N4R; in assay [2]) was “binds” throughout.

B13: VHH Z70 mutant 14 (VHH)
VHH: EVQLQASGGVFVQSGGSLRLSCAASGATSIFDGMGWFRQAPGKEREFVSAISYGQGSYTYYADSVKGRFTISRDNSKNMVYLQMNSLRAEDTATYYCAPAYEGDLYAFDSYGEQGTQVTVSS
As to B13, the binding result (in the assay with Biotinylated Tau 2N4R; in assay [2]) was “binds” each time.

B14: VHH Z70 mutant 12 (S23C + G115E), Gal4 activation domain fusion prey (VHH)
VHH: EVQLQASGGVFVQSGGSLRLCCAASGATSTFDGMGWFRQAPGKEREFVSAISYEQGSYTYYADSVKGRFTISRDNSKNMVYLQMNSLRAEDTATYYCAPAYEGDLYAFDSYGEQGTQVTVSS
B14: the binding result in assay [1] was “binds”.

B15: VHH Z70 mutant 5 (T96S), Gal4 activation domain fusion prey (VHH)
VHH: EVQLQASGGVFVQSGGSLRLSCAASGATSTFDGMGWFRQAPGKEREFVSAISYEQGSYTYYADSVKGRFTISRDNSKNMVYLQMNSLRAEDTASYYCAPAYEGDLYAFDSYGGQGTQVTVSS
Consider B15, for which the binding result in assay [1] is “binds”.

B16: VHH Z70 mutant 9 (P101S + G115E), Gal4 activation domain fusion prey (VHH)
VHH: EVQLQASGGVFVQSGGSLRLSCAASGATSTFDGMGWFRQAPGKEREFVSAISYEQGSYTYYADSVKGRFTISRDNSKNMVYLQMNSLRAEDTATYYCASAYEGDLYAFDSYGEQGTQVTVSS
For the molecule B16, the binding result in assay [1] is given as “binds”.
